Results: article PMC12416549 (2024)
Changes are numbered by the printed parent chain. In names and notes the source's numbering stands.

Target: T1, TNFR1 (Homo sapiens, UniProt P19438)
T1 chain: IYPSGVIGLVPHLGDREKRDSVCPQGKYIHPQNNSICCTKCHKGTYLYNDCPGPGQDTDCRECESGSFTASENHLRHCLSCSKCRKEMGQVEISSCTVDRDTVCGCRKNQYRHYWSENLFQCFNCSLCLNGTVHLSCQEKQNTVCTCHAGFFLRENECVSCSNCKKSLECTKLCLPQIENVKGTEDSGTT
Assay: yeast display SC50

B1: E14L (designed binder)
chain: SMEEEVEKAAKEYLKKKKEAIEKHLEKLKAKDKEAAERFLKELEEAAKEYAKDEAKTMSEEEAKRRAKKYKEKVLLSELSEEEQKEIKEAEEKLVRTILKYVEEAAK
With B1 the “apparent Kd (screen)” value was 7.07 nM.

B2: E91L (designed binder)
chain: B1 chain with L14E, E91L
With B2 the “apparent Kd (screen)” value was 13.8 nM.

B3: Y13V (designed binder)
chain: B1 chain with Y13V, L14E
With B3 the “apparent Kd (screen)” value was 8.56 nM.

B4: S1T (designed binder)
chain: B1 chain with S1T, L14E
B4 was tested, and the “apparent Kd (screen)” value was 0.49 nM.

B5: A46G (designed binder)
chain: B1 chain with L14E, A46G
B5 was tested, and the “apparent Kd (screen)” value was 0.49 nM.

B6: V95A (designed binder)
chain: B1 chain with L14E, V95A
B6 was tested, and the “apparent Kd (screen)” value was 6.43 nM.

B7: L43T (designed binder)
chain: B1 chain with L14E, L43T
For B7, the “apparent Kd (screen)” value was 0.49 nM.

B8: I98Q (designed binder)
chain: B1 chain with L14E, I98Q
B8 was tested, and the “apparent Kd (screen)” value was 0.0498 nM.

B9: T97H (designed binder)
chain: B1 chain with L14E, T97H
B9 was tested, and the “apparent Kd (screen)” value was 0.653 nM.

B10: I21G (designed binder)
chain: B1 chain with L14E, I21G
In the case of B10, the “apparent Kd (screen)” value is reported as 0.49 nM.

B11: V95P (designed binder)
chain: B1 chain with L14E, V95P
In the case of B11, the “apparent Kd (screen)” value is reported as 5.31 nM.

B12: K73Q (designed binder)
chain: B1 chain with L14E, K73Q
B12 was tested, and the “apparent Kd (screen)” value was 1.05 nM.

B13: E44R (designed binder)
chain: B1 chain with L14E, E44R
In the case of B13, the “apparent Kd (screen)” value is reported as 0.593 nM.

B14: E82G (designed binder)
chain: B1 chain with L14E, E82G
For B14, the “apparent Kd (screen)” value was 0.446 nM.

B15: K93E (designed binder)
chain: B1 chain with L14E, K93E
With B15 the “apparent Kd (screen)” value was 0.956 nM.

B16: T97F (designed binder)
chain: B1 chain with L14E, T97F
B16 was tested, and the “apparent Kd (screen)” value was 0.405 nM.

B17: K16Y (designed binder)
chain: B1 chain with L14E, K16Y
In the case of B17, the “apparent Kd (screen)” value is reported as 0.446 nM.

B18: E61A (designed binder)
chain: B1 chain with L14E, E61A
B18 was tested, and the “apparent Kd (screen)” value was 1.27 nM.

B19: E72N (designed binder)
chain: B1 chain with L14E, E72N
For B19, the “apparent Kd (screen)” value was 1.27 nM.

B20: A9S (designed binder)
chain: B1 chain with A9S, L14E
B20 was tested, and the “apparent Kd (screen)” value was 0.49 nM.

B21: K48H (designed binder)
chain: B1 chain with L14E, K48H
For B21, the “apparent Kd (screen)” value was 0.718 nM.

B22: K8Q (designed binder)
chain: B1 chain with K8Q, L14E
With B22 the “apparent Kd (screen)” value was 0.956 nM.

B23: E22P (designed binder)
chain: B1 chain with L14E, E22P
With B23 the “apparent Kd (screen)” value was 12.5 nM.

B24: Y101C (designed binder)
chain: B1 chain with L14E, Y101C
For B24, the “apparent Kd (screen)” value was 0.446 nM.

B25: M2E (designed binder)
chain: B1 chain with M2E, L14E
For B25, the “apparent Kd (screen)” value was 0.956 nM.

B26: T97R (designed binder)
chain: B1 chain with L14E, T97R
With B26 the “apparent Kd (screen)” value was 0.49 nM.

B27: E81A (designed binder)
chain: B1 chain with L14E, E81A
With B27 the “apparent Kd (screen)” value was 0.718 nM.

B28: E49P (designed binder)
chain: B1 chain with L14E, E49P
With B28 the “apparent Kd (screen)” value was 4.39 nM.

B29: E19W (designed binder)
chain: B1 chain with L14E, E19W
In the case of B29, the “apparent Kd (screen)” value is reported as 0.539 nM.

B30: E12R (designed binder)
chain: B1 chain with E12R, L14E
With B30 the “apparent Kd (screen)” value was 0.539 nM.

B31: V6A (designed binder)
chain: B1 chain with V6A, L14E
In the case of B31, the “apparent Kd (screen)” value is reported as 0.539 nM.

B32: R65C (designed binder)
chain: B1 chain with L14E, R65C
In the case of B32, the “apparent Kd (screen)” value is reported as 6.43 nM.

B33: E3V (designed binder)
chain: B1 chain with E3V, L14E
In the case of B33, the “apparent Kd (screen)” value is reported as 1.69 nM.

B34: T57W (designed binder)
chain: B1 chain with L14E, T57W
B34 was tested, and the “apparent Kd (screen)” value was 0.304 nM.

B35: I87W (designed binder)
chain: B1 chain with L14E, I87W
With B35 the “apparent Kd (screen)” value was 12.5 nM.

B36: A10H (designed binder)
chain: B1 chain with A10H, L14E
B36 was tested, and the “apparent Kd (screen)” value was 3.3 nM.

B37: K69S (designed binder)
chain: B1 chain with L14E, K69S
B37 was tested, and the “apparent Kd (screen)” value was 0.446 nM.

B38: T97M (designed binder)
chain: B1 chain with L14E, T97M
B38 was tested, and the “apparent Kd (screen)” value was 0.539 nM.

B39: A35L (designed binder)
chain: B1 chain with L14E, A35L
For B39, the “apparent Kd (screen)” value was 0.446 nM.

B40: K100C (designed binder)
chain: B1 chain with L14E, K100C
B40 was tested, and the “apparent Kd (screen)” value was 3 nM.

B41: E72F (designed binder)
chain: B1 chain with L14E, E72F
With B41 the “apparent Kd (screen)” value was 0.446 nM.

B42: A90N (designed binder)
chain: B1 chain with L14E, A90N
For B42, the “apparent Kd (screen)” value was 0.446 nM.

B43: K41T (designed binder)
chain: B1 chain with L14E, K41T
In the case of B43, the “apparent Kd (screen)” value is reported as 0.956 nM.

B44: K85P (designed binder)
chain: B1 chain with L14E, K85P
B44 was tested, and the “apparent Kd (screen)” value was 18.3 nM.

B45: E45N (designed binder)
chain: B1 chain with L14E, E45N
In the case of B45, the “apparent Kd (screen)” value is reported as 2.48 nM.

B46: E60R (designed binder)
chain: B1 chain with L14E, E60R
In the case of B46, the “apparent Kd (screen)” value is reported as 1.16 nM.

B47: L25K (designed binder)
chain: B1 chain with L14E, L25K
B47 was tested, and the “apparent Kd (screen)” value was 1.4 nM.

B48: S80M (designed binder)
chain: B1 chain with L14E, S80M
For B48, the “apparent Kd (screen)” value was 1.16 nM.

B49: Q84M (designed binder)
chain: B1 chain with L14E, Q84M
For B49, the “apparent Kd (screen)” value was 5.84 nM.

B50: E103L (designed binder)
chain: B1 chain with L14E, E103L
For B50, the “apparent Kd (screen)” value was 3 nM.

B51: D53R (designed binder)
chain: B1 chain with L14E, D53R
B51 was tested, and the “apparent Kd (screen)” value was 2.73 nM.

B52: D32K (designed binder)
chain: B1 chain with L14E, D32K
B52 was tested, and the “apparent Kd (screen)” value was 1.05 nM.

B53: V102R (designed binder)
chain: B1 chain with L14E, V102R
For B53, the “apparent Kd (screen)” value was 2.25 nM.

B54: E12S (designed binder)
chain: B1 chain with E12S, L14E
In the case of B54, the “apparent Kd (screen)” value is reported as 0.446 nM.

B55: A30V (designed binder)
chain: B1 chain with L14E, A30V
For B55, the “apparent Kd (screen)” value was 0.869 nM.

B56: A36C (designed binder)
chain: B1 chain with L14E, A36C
B56 was tested, and the “apparent Kd (screen)” value was 0.79 nM.

B57: E89T (designed binder)
chain: B1 chain with L14E, E89T
In the case of B57, the “apparent Kd (screen)” value is reported as 2.25 nM.

B58: R66L (designed binder)
chain: B1 chain with L14E, R66L
With B58 the “apparent Kd (screen)” value was 18.3 nM.

B59: K11E (designed binder)
chain: B1 chain with K11E, L14E
For B59, the “apparent Kd (screen)” value was 0.446 nM.
